B1: asc-1 of mouse (co-expressed with 4F2hc of mouse) (Mus musculus) (protein)
chain: MRRDSDMASHIQQPGGHGNPGPAPSPSPGPGPGPGASERVALKKEIGLVSACTIIIGNIIGSGIFISPKGVLEHSGSVGLALFVWVLGGGVTALGSLCYAELGVAIPKSGGDYAYVTEIFGGLAGFLLLWSAVLIMYPTSLAVISMTFSNYVLQPVFPNCIPPATASRVLSMACLMLLTWVNSSSVRWATRIQVIFTGGKLLALSLIITVGFVQIFQGHFEELRPTNAFAFWMTPSVGHLALAFLQGSFAFSGWNFLNYVTEELVDPRKNLPRAIFISIPLVTFVYTFTNVAYFTAMSPQELLSSNAVAVTFGEKLLGYFSWVMPVSVALSTFGGINGYLFTSSRLCFSGAREGHLPSFLAMIHVRRCTPIPALLVCCGATAVIMLVGDTYTLINYVSFINYLCYGVTILGLLVLRWRRPALHRPIKVNLLVPVVYLVFWAFLLVFSFISEPMVCGVGIIIILTGVPIFFLGVFWRSKPKCVHRFTESMTRWGQELCFVVYPQGSLEEEENGPMGQPSPLPITDKPLKTQ
notes: expressed in transfected cells; host or cells: Xenopus oocytes injected with cRNA

Experiments:
[1] = biological target: T1, asc-1 of mouse (co-expressed with 4F2hc of mouse) (Mus musculus, UniProt P63115); test: Michaelis-Menten kinetic test of substrate incorporation by Xenopus oocytes co-expressing asc-1 and 4F2hc; format: cell-based; settings: ratio to the Vmax value for alanine (defined as 1.00)
T1 construct: expressed in transfected cells; host or cells: Xenopus oocytes injected with cRNA
T1 sequence (P63115 1-530): B1 chain
T1 sequence (P10852 1-526 partner): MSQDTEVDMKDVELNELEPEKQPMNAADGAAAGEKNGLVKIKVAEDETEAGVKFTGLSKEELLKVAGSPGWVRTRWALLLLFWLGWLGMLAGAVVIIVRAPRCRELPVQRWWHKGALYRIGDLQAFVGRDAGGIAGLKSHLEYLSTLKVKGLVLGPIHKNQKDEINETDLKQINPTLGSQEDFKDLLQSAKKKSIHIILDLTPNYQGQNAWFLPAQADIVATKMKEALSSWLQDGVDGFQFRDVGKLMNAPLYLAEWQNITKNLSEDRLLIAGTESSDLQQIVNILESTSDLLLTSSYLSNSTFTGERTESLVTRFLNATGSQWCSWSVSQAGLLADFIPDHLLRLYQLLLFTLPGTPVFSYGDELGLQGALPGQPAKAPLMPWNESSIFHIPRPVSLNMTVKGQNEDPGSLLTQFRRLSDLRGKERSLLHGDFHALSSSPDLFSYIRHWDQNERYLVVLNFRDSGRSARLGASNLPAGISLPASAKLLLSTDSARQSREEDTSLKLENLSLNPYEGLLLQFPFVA
Method: (§1) Into oocytes were injected 12 ng of asc-1 gene cRNA of mouse, 13 ng of 4F2hc gene cRNA of mouse or 12 ng asc-1 gene cRNA of mouse/13 ng of 4F2hc gene cRNA of mouse to express followed by incubating for 3 days. […] Thus, the oocytes were allowed to stand for 30 minutes in a Na^+-free uptake solution [100 mM choline chloride, 2 mM potassium chloride, 1.8 mM calcium chloride, 1 mM magnesium chloride, 5 mM HEPES; pH 7.4] containing ^14C-alanine (100 μM) as a substrate and the rate of the substrate incorporated into the cells was measured by way of counting the radioactivity incorporated thereinto.
A Michaelis-Menten kinetic test was carried out for a sodium-independent small neutral amino acid transporter asc-1 which transports L- and D-amino acids. By checking the changes in the rate of incorporation of alanine due to the difference in concentration of the alanine substrate, the Michaelis-Menten kinetic test of asc-1 was carried out.
An experiment for the incorporation of alanine was carried out according to the method mentioned in the above Example 2(1) using the oocytes into which both asc-1 gene cRNA of mouse and 4F2hc gene cRNA of mouse were injected.
With regard to amino acids other than alanine which were used as substrates, a Michaelis-Menten kinetic was carried out as well in the same manner whereupon Km values and Vmax values were calculated. Each Vmax value in Table 1 was shown in terms of the ratio when the Vmax value of alanine was defined as 1.00.

[2] = biological target: T1, asc-1 of mouse (co-expressed with 4F2hc of mouse); test: Incorporation of radiolabeled amino acids and analogs by oocytes co-expressing asc-1 and 4F2hc; format: cell-based; settings: summary statement; asc-1 co-existing with 4F2hc
Method: Incorporation of alanine when asc-1 gene cRNA of mouse was solely expressed in oocytes of Xenopus and when asc-1 gene cRNA of mouse and 4F2hc gene cRNA of mouse were expressed in oocytes of Xenopus together was compared.
as §1
In an experiment of incorporation of alanine by oocytes into which both asc-1 gene cRNA and 4F2hc gene cRNA of mouse were injected together, influence of the salt added to the medium was investigated.
The experiment of incorporation of alanine was carried out in accordance with the method mentioned in the above Example 2(1) using oocytes into which both asc-1 gene cRNA and 4F2hc gene cRNA of mouse were injected together. When the influence of sodium ion was checked however, a standard uptake solution (where 100 mM choline chloride was substituted with 100 mM sodium chloride) was used in place of the Na^+-free uptake solution as the uptake solution. When the influence of chlorine ion was checked, a gluconic acid uptake solution (where 100 mM sodium chloride was substituted with 100 mM sodium gluconate) was used in place of the standard uptake solution.
Incorporation by asc-1 was investigated using various amino acids and analogs thereof as substrates. Experiment for incorporation of various amino acids and analogs thereof was carried out according to the method mentioned in the above Example 2(1) using oocytes into which asc-1 gene cRNA of mouse and 4F2hc gene cRNA of mouse were injected together. With regard to the substrates however, various compounds labeled with radioactivity were used in place of ^14C-alanine.
Influence of pH was checked in an experiment for incorporation of alanine by oocytes into which both asc-1 gene cRNA and 4F2hc gene cRNA of mouse were injected together. With regard to an experiment for incorporation of alanine, the method according to that mentioned in the above Example 2 (1) was carried out using oocytes into which both asc-1 gene cRNA of mouse and 4F2hc gene cRNA of mouse were injected together.

[3] = biological target: T2, LAT1 of rat (co-expressed with 4F2hc of rat) (Rattus norvegicus, UniProt Q63016, Q506C); test: Release of injected 14C-leucine from oocytes co-expressing LAT1 and 4F2hc of rat; format: cell-based; settings: leucine 100 μM added or not added outside the cells
T2 construct: expressed in transfected cells; host or cells: oocytes injected with cRNA (per Kanai et al., J. Biol. Chem. 273:23629)
Method: Further, ^14C-leucine was similarly injected into oocytes into which LAT1 gene cRNA and 4F2hc gene cRNA of rat were injected together (Kanai et al., J. Biol. Chem., volume 273, page 23629, […]), washed with an ice-cooled Na^+-free uptake solution containing no leucine and transferred to a Na^+-free uptake solution to which leucine (100 μM) was added or not added at room temperature (18° C.-22° C.) whereupon the amount of ^14C-leucine released outside the cells was measured.
In the drawing, 0 is the case where, in the release of ^14C-leucine in the oocytes into which water is injected as a control instead of cRNA of rat LAT1 gene and cRNA of rat 4F2hc gene, a Na^+-free uptake solution to which no leucine is added is used; ● is the case where, in the release of ^14C-leucine in the oocytes into which water is injected as a control instead of cRNA of rat LAT1 gene and cRNA of rat 4F2hc gene, a Na^+-free uptake solution to which leucine is added is used; ● is the case where, in the release of ^14C-leucine in the oocytes into which cRNA of rat LAT1 gene and cRNA of rat 4F2hc gene are injected, a Na^+-free uptake solution to which no leucine is added is used; and ▪ is the case where, in the release of ^14C-leucine in the oocytes into which cRNA of rat LAT1 gene and cRNA of rat 4F2hc gene are injected, a Na^+-free uptake solution to which leucine is added is used.

[4] = substrate: CSCC[C@H](N)C(=O)O; test: cells, lysate or membranes; settings: other: oocytes with mouse asc-1 and 4F2hc cRNA; Na+-free uptake solution; pH 7.4
[5] = substrate: C[C@@H](N)C(=O)O; test: cells, lysate or membranes; settings: other: oocytes with mouse asc-1 and 4F2hc cRNA; Na+-free uptake solution; pH 7.4
[6] = substrate: C[C@@H](O)[C@H](N)C(=O)O; test: cells, lysate or membranes; settings: other: oocytes with mouse asc-1 and 4F2hc cRNA; Na+-free uptake solution; pH 7.4
[7] = substrate: C[C@H](N)C(=O)O; test: cells, lysate or membranes; settings: other: oocytes with mouse asc-1 and 4F2hc cRNA; Na+-free uptake solution; pH 7.4
[8] = substrate: NCC(=O)O; test: cells, lysate or membranes; settings: other: oocytes with mouse asc-1 and 4F2hc cRNA; Na+-free uptake solution; pH 7.4
[9] = substrate: NCCC(=O)O; test: cells, lysate or membranes; settings: other: oocytes with mouse asc-1 and 4F2hc cRNA; Na+-free uptake solution; pH 7.4
[10] = substrate: CC(C)(N)C(=O)O; test: Michaelis-Menten kinetic test of substrate incorporation by Xenopus oocytes co-expressing asc-1 and 4F2hc; format: cell-based; settings: other: oocytes with mouse asc-1 and 4F2hc cRNA; Na+-free uptake solution; pH 7.4
[11] = substrate: CC(C)C[C@H](N)C(=O)O; test: as above; format: cell-based; settings: other: oocytes with mouse asc-1 and 4F2hc cRNA; Na+-free uptake solution; pH 7.4
[12] = substrate: CC(C)[C@H](N)C(=O)O; test: as above; format: cell-based; settings: other: oocytes with mouse asc-1 and 4F2hc cRNA; Na+-free uptake solution; pH 7.4
[13] = substrate: CC[C@H](C)[C@H](N)C(=O)O; test: as above; format: cell-based; settings: other: oocytes with mouse asc-1 and 4F2hc cRNA; Na+-free uptake solution; pH 7.4
[14] = substrate: N[C@@H](CO)C(=O)O; test: as above; format: cell-based; settings: other: oocytes with mouse asc-1 and 4F2hc cRNA; Na+-free uptake solution; pH 7.4
[15] = substrate: N[C@@H](CS)C(=O)O; test: as above; format: cell-based; settings: other: oocytes with mouse asc-1 and 4F2hc cRNA; Na+-free uptake solution; pH 7.4
[16] = substrate: N[C@@H](Cc1c[nH]cn1)C(=O)O; test: as above; format: cell-based; settings: other: oocytes with mouse asc-1 and 4F2hc cRNA; Na+-free uptake solution; pH 7.4
[17] = substrate: N[C@@H](Cc1ccccc1)C(=O)O; test: as above; format: cell-based; settings: other: oocytes with mouse asc-1 and 4F2hc cRNA; Na+-free uptake solution; pH 7.4
[18] = substrate: N[C@H](CO)C(=O)O; test: as above; format: cell-based; settings: other: oocytes with mouse asc-1 and 4F2hc cRNA; Na+-free uptake solution; pH 7.4

T2 sequence (Q63016 whole entry Q506C): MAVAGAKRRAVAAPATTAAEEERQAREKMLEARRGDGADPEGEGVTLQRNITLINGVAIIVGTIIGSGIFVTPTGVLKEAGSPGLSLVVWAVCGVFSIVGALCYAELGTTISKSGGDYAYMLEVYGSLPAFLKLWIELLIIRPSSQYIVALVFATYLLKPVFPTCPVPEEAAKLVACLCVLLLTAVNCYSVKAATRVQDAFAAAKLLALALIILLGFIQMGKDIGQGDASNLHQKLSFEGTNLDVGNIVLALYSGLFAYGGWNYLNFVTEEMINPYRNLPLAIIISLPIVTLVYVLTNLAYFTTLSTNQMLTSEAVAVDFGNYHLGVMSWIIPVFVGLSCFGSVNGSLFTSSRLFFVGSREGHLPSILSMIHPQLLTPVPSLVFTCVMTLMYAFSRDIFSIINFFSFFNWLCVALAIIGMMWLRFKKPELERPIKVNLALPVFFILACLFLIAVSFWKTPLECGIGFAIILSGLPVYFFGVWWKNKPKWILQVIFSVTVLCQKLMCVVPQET
T2 sequence (Q794F9 whole entry partner): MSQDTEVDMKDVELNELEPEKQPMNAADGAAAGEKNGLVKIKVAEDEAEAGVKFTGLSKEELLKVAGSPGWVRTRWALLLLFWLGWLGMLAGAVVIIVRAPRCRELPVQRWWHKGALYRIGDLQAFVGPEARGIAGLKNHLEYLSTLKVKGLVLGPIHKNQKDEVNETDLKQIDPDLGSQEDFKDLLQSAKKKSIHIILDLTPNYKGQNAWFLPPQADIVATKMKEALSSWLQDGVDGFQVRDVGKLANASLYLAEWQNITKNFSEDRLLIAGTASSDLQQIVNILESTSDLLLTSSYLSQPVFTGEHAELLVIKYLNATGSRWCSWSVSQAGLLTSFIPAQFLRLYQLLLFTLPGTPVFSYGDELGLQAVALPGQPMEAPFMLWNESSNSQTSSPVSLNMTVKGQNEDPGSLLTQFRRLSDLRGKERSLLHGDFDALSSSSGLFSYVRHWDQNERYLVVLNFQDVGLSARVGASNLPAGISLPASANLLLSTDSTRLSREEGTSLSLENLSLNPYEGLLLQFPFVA

Molecule | Vmax [1] | transport by asc-1 (affinity in words) [2] | release of 14C-leucine [3] | Km [4] | Km [5] | Km [6] | Km [7] | Km [8] | Km [9] | Km [10] | Km [11] | Km [12] | Km [13] | Km [14] | Km [15] | Km [16] | Km [17] | Km [18]
CC(C)C[C@H](N)C(=O)O [L-Leucine] | 0.58 | lowly affinitive | observed only when leucine was added |  |  |  |  |  |  |  |  |  |  |  |  |  |  | 
B1 |  |  |  | 139 µM | 100 µM | 19.3 µM | 23.0 ± 5.1 µM | 7.8 µM | 281 µM | 22.7 µM | 245 µM | 112 µM | 160 µM | 11.3 µM | 23.7 µM | 368 µM | 464 µM | 52.0 µM

From patent US20070122422A1, “Sodium-independent small neutral amino acid transporter transporting L- and D- amino acids” (Japan Science and Technology Corporation, priority 2000, published 2007)
